The text below walks through data of CN118126168A.

Substrate in experiment [1]: 禽流感病毒NP蛋白 (avian influenza virus)
Substrate in the experiment “indirect ELISA”: 禽流感病毒NP蛋白 (avian influenza virus)
In words: indirect ELISA. On the technique in general: ELISA stands for enzyme-linked immunosorbent assay.

B1: 禽流感病毒NP蛋白的单克隆抗体 (antibody, V domains shown)
VH: EVRLQESRPELVEPGASVKISCNASAYTFSDYWMNCVKQSHGKSLECIGDISPTYDRTSYNHKFKGYATLTVDKSSSSAYIELRSLTSDDSAVYYCARGGYGNYRDYWGKRTTRTVSS
VL: MKYLLATAAAGILLLAAQPAMADVVMSQTTRTLSVSIEQPASISCKSSQSLLHSDGKSYLNWLLQRPRQSPKCLSYLVSRRDSGVPDRVTGSSSGTDVTLGISSVEAEDLRVYYYWQRTHCPITVGSGTKLDIK
Take B1: the 试纸条灵敏度 (lowest NP concentration detected) in experiment [1] came out at 0.18 µg/mL. For the same molecule, in “indirect ELISA”, the ELISA titre (dilution still positive) (fold dilution) is more than 102000.
